{
  "source": "paper PMC5293408",
  "about": "(Biochemistry, 2016)",
  "molecules": {"B1": {"name": "Human UDP-glucose dehydrogenase with the A136M substitution (enzyme)", "chain": "MFEIKKICCIGAGYVGGPTCSVIAHMCPEIRVTVVDVNESRINAWNSPTLPIYEPGLKEVVESCRGKNLFFSTNIDDAIKEADLVFISVNTPTKTYGMGKGRAADLKYIEACARRIVQNSNGYKIVTEKSTVPVRMAESIRRIFDANTKPNLNLQVLSNPEFLAEGTAIKDLKNPDRVLIGGDETPEGQRAVQALCAVYEHWVPREKILTTNTWSSELSKLAANAFLAQRISSINSISALCEATGADVEEVATAIGMDQRIGNKFLKASVGFGGSCFQKDVLNLVYLCEALNLPEVARYWQQVIDMNDYQRRRFASRIIDSLFNTVTDKKIAILGFAFKKDTGDTRESSSIYISKYLMDEGAHLHIYDPKVPREQIVVDLSHPGVSEDDQVSRLVTISKDPYEACDGAHAVVICTEWDMFKELDYERIHKKMLKPAFIFDGRRVLDGLHNELQTIGFQIETIGKKVSSKRIPYAPSGEIPKFSLQDPPNKKPKV"}, "B2": {"name": "Human UDP-glucose dehydrogenase (enzyme, UniProt O60701 1-494, looked up)", "chain": "MFEIKKICCIGAGYVGGPTCSVIAHMCPEIRVTVVDVNESRINAWNSPTLPIYEPGLKEVVESCRGKNLFFSTNIDDAIKEADLVFISVNTPTKTYGMGKGRAADLKYIEACARRIVQNSNGYKIVTEKSTVPVRAAESIRRIFDANTKPNLNLQVLSNPEFLAEGTAIKDLKNPDRVLIGGDETPEGQRAVQALCAVYEHWVPREKILTTNTWSSELSKLAANAFLAQRISSINSISALCEATGADVEEVATAIGMDQRIGNKFLKASVGFGGSCFQKDVLNLVYLCEALNLPEVARYWQQVIDMNDYQRRRFASRIIDSLFNTVTDKKIAILGFAFKKDTGDTRESSSIYISKYLMDEGAHLHIYDPKVPREQIVVDLSHPGVSEDDQVSRLVTISKDPYEACDGAHAVVICTEWDMFKELDYERIHKKMLKPAFIFDGRRVLDGLHNELQTIGFQIETIGKKVSSKRIPYAPSGEIPKFSLQDPPNKKPKV"}},
  "key": {"[1]": {"target": "T1, hUGDHA136M (human UDP-glucose dehydrogenase A136M) (Homo sapiens, UniProt O60701, A136M)", "T1 sequence (O60701 1-494 A136M)": "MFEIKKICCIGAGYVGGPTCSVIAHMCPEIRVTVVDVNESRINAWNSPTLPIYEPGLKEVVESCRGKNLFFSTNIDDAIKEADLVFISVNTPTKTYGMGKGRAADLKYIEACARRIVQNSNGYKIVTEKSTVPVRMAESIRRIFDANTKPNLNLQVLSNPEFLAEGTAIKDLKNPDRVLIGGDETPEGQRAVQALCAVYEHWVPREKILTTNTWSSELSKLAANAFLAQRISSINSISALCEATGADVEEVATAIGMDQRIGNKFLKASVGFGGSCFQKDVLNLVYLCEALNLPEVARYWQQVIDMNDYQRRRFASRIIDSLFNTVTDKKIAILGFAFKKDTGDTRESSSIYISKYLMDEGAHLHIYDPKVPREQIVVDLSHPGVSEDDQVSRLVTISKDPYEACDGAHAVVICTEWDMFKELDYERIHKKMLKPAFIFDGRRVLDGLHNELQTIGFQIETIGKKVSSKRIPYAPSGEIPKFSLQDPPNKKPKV", "test": "steady-state kinetics, global fit of competitive inhibition", "type": "biochemical"}, "[2]": {"substrate": "NC(=O)c1ccc[n+]([C@@H]2O[C@H](COP(=O)([O-])OP(=O)(O)OC[C@H]3O[C@@H](n4cnc5c(N)ncnc54)[C@H](O)[C@@H]3O)[C@@H](O)[C@H]2O)c1", "test": "steady-state NAD+ saturation kinetics", "type": "biochemical, Homo sapiens", "conditions": "NAD+ binding domain (NB); varied: cofactor"}, "AUC [3]": {"target": "the molecule itself", "test": "AUC"}, "AUC [4]": {"target": "the molecule itself", "test": "AUC", "remark": "listed apart in the source"}},
  "note": "Several values for one entry are separate records, joined by “and”; a condition that tells them apart may be missing. Equal entries are not always repeated. Where two headings read alike, the source gives them in different places.",
  "data": [
    {"molecule": "O=c1ccn([C@@H]2O[C@H](COP(=O)(O)OP(=O)(O)O[C@H]3OC[C@@H](O)[C@H](O)[C@H]3O)[C@@H](O)[C@H]2O)c(=O)[nH]1", "note": "[UDP-xylose]", "values": [
      {"measurement": "Ki", "setting": "[1]", "value": 4.2, "unit": "µM"}
    ]},
    {"molecule": "B1", "values": [
      {"measurement": "Km", "setting": "[2]", "value": 90, "unit": "µM"},
      {"measurement": "stoichiometry N", "setting": "AUC [3]", "value": "6 and 2 and 4"}
    ]},
    {"molecule": "B2", "values": [
      {"measurement": "stoichiometry N", "setting": "AUC [3]", "value": 6},
      {"measurement": "stoichiometry N", "setting": "AUC [4]", "value": "2 and 4"}
    ]}
  ]
}
